Several values for one entry are separate records, joined by “and”; a condition that tells them apart may be missing. Equal values may be shown once.
System: HBeAg
Test: Suppression of HBeAg secretion in 2.2.15 cells (radioimmunoassay, cpm)
Format: cell-based, hepatitis B virus
Description: Grow 200000 cells/ml 2.2.15 cell on 24-well plate, 1 ml per well, incubate for 24 hours under 5% CO2 at 37° C. […] 4 wells per concentration, incubate under 5% CO2 at 37° C., change drug solution every 4 days with the same concentration, retrieve culture medium at day 8, preserve at −20° C. Repeat experiment for 2 batches, test for HBsAg and HBeAg separately. Check cpm value for each wells using γ-counter.
Calculating drug effectiveness: calculate the mean and standard deviation of cpm from the cell control group and groups with different drug concentration, P/N value and percent suppression, IC50 and SI. • (1)
[formula] • (2) Calculate IC50 for drug suppression of antigen:
[formula] • (4) Calculate the cpm differences between HBsAg and HBeAg in different dilutions and control groups by t-test.

B1: Arginase: Pegylated recombinant human arginase (BCT-100); human arginase I with N-terminal six-histidine tag, SEQ ID NO: 3 (protein, listed as Homo sapiens)
chain: MHHHHHHMSAKSRTIGIIGAPFSKGQPRGGVEEGPTVLRKAGLLEKLKEQECDVKDYGDLPFADIPNDSPFQIVKNPRSVGKASEQLAGKVAQVKKNGRISLVLGGDHSLAIGSISGHARVHPDLGVIWVDAHTDINTPLTTTSGNLHGQPVSFLLKELKGKIPDVPGFSWVTPCISAKDIVYIGLRDVDPGEHYILKTLGIKYFSMTEVDRLGIGKVMEETLSYLLGRKKRPIHLSFDVDGLDPSFTPATGTPVVGGLTYREGLYITEEIYKTGLLSGLDIMEVNPSLGKTPEEVTRTVNTAVAITLACFGLAREGNHKPIDYLNPPK
modifications: PEGylated
Suppression of HBeAg secretion (result in words) (2.2.15 cells, 8 days incubation, TC0 concentration and dilutions): significantly inhibits | HBeAg (CPM) % suppression (Arginase 1.25 IU/ml, batch 2, day 8): 37.3426% | HBeAg (CPM) % suppression (Arginase 1.25 IU/ml, two batches average line, day 8): 37.34% | HBeAg (CPM) % suppression (Arginase 2.5 IU/ml, batch 1, day 8): 61.8387% | HBeAg (CPM) % suppression (Arginase 2.5 IU/ml, batch 2, day 8): 41.8149% | HBeAg (CPM) % suppression (Arginase 2.5 IU/ml, two batches average, day 8): 51.83±14.16% | HBeAg (CPM) % suppression (Arginase 5 IU/ml, batch 1, day 8): 68.3484% | HBeAg (CPM) % suppression (Arginase 5 IU/ml, batch 2, day 8): 39.5618% | HBeAg (CPM) % suppression (Arginase 5 IU/ml, two batches average, day 8): 53.96±20.36% | HBeAg (CPM) % suppression (Arginase 10 IU/ml, batch 1, day 8): 73.0985% | HBeAg (CPM) % suppression (Arginase 10 IU/ml, batch 2, day 8): 48.3596% | HBeAg (CPM) % suppression (Arginase 10 IU/ml, two batches average, day 8): 60.73±17.49% | HBeAg (CPM) % suppression (Arginase 20 IU/ml, batch 1, day 8): 74.9808% | HBeAg (CPM) % suppression (Arginase 20 IU/ml, batch 2, day 8): 62.4033% | HBeAg (CPM) % suppression (Arginase 20 IU/ml, two batches average, day 8): 68.69±8.89% | HBeAg (CPM) % suppression (Arginase 20 IU/ml, two batches average, day 8, listed as pegylated recombinant arginase): 68.69±8.89% | HBeAg IC50 (batch 1, day 8): 6.69 IU/ml | HBeAg IC50 (batch 2, day 8): 6.05 IU/ml | HBeAg IC50 (two batches average, day 8): 6.37 ± 0.45 IU/ml and 6.37 IU/ml | HBeAg IC50 (two batches average, day 8, listed as pegylated recombinant arginase): 6.37±0.45 IU/ml
